According to patent publication US20250109177A1, “EVOLVED PROTEIN DEGRONS” (The Broad Institute, Inc., priority 2022, published 2025):

Columns and labels:
degron-tagged eGFP = assay: Flow-based degradation assay, Degron-eGFP-IRES-mCherry in HEK293T cells; assay type: cell-based, human; settings: HEK293T, overnight PT-179 treatment
Procedure: A flow-based degradation assay was then performed using a stably transduced Degron-eGFP-IRES-mCherry construct in HEK 293T cells to determine the ability of the evolved degrons to […] (see FIG. 7). Concentration of PT-179 is shown on the x-axis. Degrons indicated in the key were fused to the N-terminus of eGFP allowing measurement of eGFP:mCherry ratios for assessing degradation.
To characterize the evolved degrons, stable HEK293T cell lines expressing degron-tagged eGFP were generated (FIG. 19A). […] The final variant, SD36, potently degraded GFP in response to PT-179 (DC50=14 nM).

[1] = system: CRBN C-terminal domain (CTD); assay: CRBN-CTD MG-PACE circuit transcriptional activation (luminescence); assay type: cell-based, human; settings: at 50 μM PT-179

Sequence of degron-tagged eGFP (Q96SW2 24-442 limits assumed): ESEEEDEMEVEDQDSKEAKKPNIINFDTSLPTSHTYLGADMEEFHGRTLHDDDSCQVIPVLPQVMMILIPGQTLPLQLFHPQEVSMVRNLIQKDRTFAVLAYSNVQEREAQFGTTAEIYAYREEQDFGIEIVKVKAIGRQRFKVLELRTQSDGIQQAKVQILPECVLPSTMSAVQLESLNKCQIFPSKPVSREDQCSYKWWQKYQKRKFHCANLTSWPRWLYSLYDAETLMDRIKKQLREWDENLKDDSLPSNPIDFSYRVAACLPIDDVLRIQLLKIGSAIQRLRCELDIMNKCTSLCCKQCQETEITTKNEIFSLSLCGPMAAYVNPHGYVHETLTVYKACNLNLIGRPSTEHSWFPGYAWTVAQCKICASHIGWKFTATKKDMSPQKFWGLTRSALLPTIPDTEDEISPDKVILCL

B1: SD20: Evolved degron SEQ ID NO: 21: S10R E14D P16L E20K Q28E E42V P44T F45V R57K D58R A59C L60F *61VI (protein)
chain: FNVLMVHKRRHTGDRLLQCKICGFTCREKGNLLRHIKLHTGVKTVKCHLCNYACQRKRCFVI
- GFP degradation in response to PT-179 (degron-tagged eGFP): did not trigger GFP degradation
- luciferase expression, activation [1]: 24 fold
